Experimental findings from patent US20230312684A1 (PINETREE THERAPEUTICS, published 2023) are described below.

As usually defined, the EC50 is the midpoint of the concentration-response curve. The low end stands for a more potent agent, the high end for a less potent agent. By Kd is commonly meant the constant that tells how readily two partners part at equilibrium.

For assay [1], the target named is RSV-F (amino acids 1-529), (Extracellular Domain) protein (His tag), ABIN2006856 (respiratory syncytial virus) (UniProt P03420). The experiment in a line: ELISA, RSV F coated, read on Varioskan plate reader. (ELISA stands for enzyme-linked immunosorbent assay.)
Assay [2] addresses Influenza A H5N1 virus (IAV H5N1) (target of the Octet assay of Example 18; protein not specified) (Influenza A H5N1 virus). Put plainly: BLI (Octet Red 96), binding affinity to IAV H5N1. A general note: In BLI a coated tip is dipped into the sample, and binding shifts an interference pattern.
Assay [3] deals with RSV-F (amino acids 1-529), (Extracellular Domain) protein (His tag), ABIN2006856 (respiratory syncytial virus) (UniProt P03420). Put plainly: ELISA, RSV F coated, read on SpectroMax.
For assay [4] the target is unchanged. The experiment in a line: ELISA, RSV F coated, anti-human IgG-HRP.
In assay [5] the target is SARS-CoV-2 (antigen of the ELISA of Example 17; protein not specified) (SARS-CoV-2). The experiment in a line: ELISA by the method of Example 15, SARS-CoV-2 antigen.
In assay [6] the target is Recombinant RSV F protein (Octet assays of Examples 14 and 16) (respiratory syncytial virus, UniProt P03420 26-529).

For “SEQ ID NO: 113, b1-Fc (NRP1, WT, single b1) (Fc fusion)”, the EC50 in assay [1] turned out to be 372 nM; in assay [3] it was 323 nM. Also, the Kd in assay [2] is 18.9 nM.

“SEQ ID NO: 203, b1b2-Fc-ACE2 (NRP1, WT, ACE2 alpha domain) (Fc fusion)”: in assay [4], the EC50 stood at 69.7 nM. “SEQ ID NO: 122, b1b2-Fc (NRP1, WT, single b1b2) (Fc fusion)”: the EC50 in assay [5] amounted to 3.09 nM; in assay [4] it was 23.3 nM. The molecule also returned a Kd in assay [2] of 17.5 nM. Consider “SEQ ID NO: 191, b1b2-Fc (NRP1, WT) (Fc fusion)”, for which the EC50 in assay [1] was 91 nM; in assay [3], 95.7 nM. Turning to “SEQ ID NO: 138, b1b2-b1b2-Fc (NRP1, WT, double b1b2) (Fc fusion)”, the EC50 in assay [5] turned out to be 110 nM. That is a sub-micromolar value. Molecule “SEQ ID NO: 205, b1b2-Fc-ACE2 (NRP1, WT, repeated ACE2 alpha domain) (Fc fusion)” showed an EC50 in assay [4] of 39.2 nM. The same measure, in the same setting: next, “SEQ ID NO: 154, b1b2-Fc (NRP2, WT, single b1b2) (Fc fusion)”: 185 nM; “SEQ ID NO: 206, Nrp1(b1)/Nrp2(b2)-Fc (WT) (Fc fusion)”: 22.7 nM. In assay [4], “SEQ ID NO: 207, Nrp2(b1)/Nrp1(b2)-Fc (WT) (Fc fusion)” came in with an EC50 of 17.1 nM. Regarding “SEQ ID NO: 121, b1b1-b1b1-Fc (NRP1, WT, quadruple b1) (Fc fusion)”, the figures for the EC50 in assay [1] and in assay [3] were 5.65 nM and 5.9 nM, respectively. The Kd in assay [2] is 0.00782 nM. In turn, “SEQ ID NO: 192, b1b2-Fc-ACE2-1 (NRP1 b1b2 at the N-terminus, alpha domain of ACE2 at the C-terminus) (Fc fusion)” had an EC50 in assay [4] of 53.9 nM.

B1: SEQ ID NO: 113, b1-Fc (NRP1, WT, single b1) (Fc fusion)
chain: EDFKCMEALGMESGEIHSDQITASSQYSTNWSAERSRLNYPENGWTPGEDSYREWIQVDLGLLRFVTAVGTQGAISKETKKKYYVKTYKIDVSSNGEDWITIKEGNKPVLFQGNTNPTDVVVAVFPKPLITRFVRIKPATWETGISMRFEVYGCGGGGSGGGGSEPKSCDKTHTCPPCPAPELLGGPSVFLFPPKPKDTLMISRTPEVTCVVVDVSHEDPEVKFNWYVDGVEVHNAKTKPREEQYNSTYRVVSVLAVLHQDWLNGKEYKCKVSNKALPAPIEKTISKAKGQPREPQVYTLPPSRDELTKNQVSLTCLVKGFYPSDIAVAWESNGQPENNYKTTPPVLDSDGSFFLYSKLTVDKSRWQQGNVFSCSVMHEALHAHYTQKSLSLSPGK
For the molecule B1, in assay [6], the Kd is less than 1 nM.

B2: SEQ ID NO: 121, b1b1-b1b1-Fc (NRP1, WT, quadruple b1) (Fc fusion)
chain: EDFKCMEALGMESGEIHSDQITASSQYSTNWSAERSRLNYPENGWTPGEDSYREWIQVDLGLLRFVTAVGTQGAISKETKKKYYVKTYKIDVSSNGEDWITIKEGNKPVLFQGNTNPTDVVVAVFPKPLITRFVRIKPATWETGISMRFEVYGCKITDYPCMEALGMESGEIHSDQITASSQYSTNWSAERSRLNYPENGWTPGEDSYREWIQVDLGLLRFVTAVGTQGAISKETKKKYYVKTYKIDVSSNGEDWITIKEGNKPVLFQGNTNPTDVVVAVFPKPLITRFVRIKPATWETGISMRFEVYGCGGGGSGGGGSCMEALGMESGEIHSDQITASSQYSTNWSAERSRLNYPENGWTPGEDSYREWIQVDLGLLRFVTAVGTQGAISKETKKKYYVKTYKIDVSSNGEDWITIKEGNKPVLFQGNTNPTDVVVAVFPKPLITRFVRIKPATWETGISMRFEVYGCKITDYPCMEALGMESGEIHSDQITASSQYSTNWSAERSRLNYPENGWTPGEDSYREWIQVDLGLLRFVTAVGTQGAISKETKKKYYVKTYKIDVSSNGEDWITIKEGNKPVLFQGNTNPTDVVVAVFPKPLITRFVRIKPATWETGISMRFEVYGCGGGGSGGGGSEPKSCDKTHTCPPCPAPELLGGPSVFLFPPKPKDTLMISRTPEVTCVVVDVSHEDPEVKFNWYVDGVEVHNAKTKPREEQYNSTYRVVSVLAVLHQDWLNGKEYKCKVSNKALPAPIEKTISKAKGQPREPQVYTLPPSRDELTKNQVSLTCLVKGFYPSDIAVAWESNGQPENNYKTTPPVLDSDGSFFLYSKLTVDKSRWQQGNVFSCSVMHEALHAHYTQKSLSLSPGK
Regarding B2, in assay [6], the Kd was less than 1 nM.
